Experimental data from US5066590A, “Superoxide dismutase combined with a poly(alkylene oxide)” (Ajinomoto Co., Inc., priority 1985, dated 1991).

Key:
[1] = system: superoxide dismutase; test: SOD enzyme activity by the method of McCord et al (residual activity vs starting SOD); type: biochemical, bovine; human
Procedure: (§1) The residual activity was obtained by the following method.
(§2) The concentration of each enzyme was obtained by the absorption method as mentioned above, and the residual activity was calculated from a comparison in activity after the reaction.

[2] = molecular target: superoxide dismutase (Bos taurus, UniProt P00442); test: as above; type: biochemical, bovine; human
Sequence of superoxide dismutase (Bos taurus, UniProt P00442) (P00442 2-152 limits assumed): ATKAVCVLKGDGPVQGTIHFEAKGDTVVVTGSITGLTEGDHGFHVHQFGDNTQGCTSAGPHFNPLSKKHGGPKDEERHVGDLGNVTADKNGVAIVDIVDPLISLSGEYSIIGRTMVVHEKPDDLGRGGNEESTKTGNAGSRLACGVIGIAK
Procedure: as §1, §2

[3] = system: Lewis-lung tumor; test: Prevention of tumor metastasis (Lewis-lung tumor implanted in mice); type: in vivo, C57BL-6 mice; conditions: for Inhibition ratio (%) (number of tumor colonies) / Inhibition ratio (%) (weight of lung tumor) / Mean number of tumor colonies / Mean weight of lung tumor: 2 mg/kg i.v.
Procedure: 10^6 cells of Lewis-lung tumor were implanted onto the foot of a number of C57BL-6 mice, and the implanted tumor was removed at seventh day after the transplantation (n=7).
The modified SOD (m-SOD) obtained in Example 1 was dissolved in a saline solution (5 mg by SOD content in 1 ml saline solution). To the mice, the modified SOD solution (2 mg by SOD content per kg) was injected intravenously once a day for 5 days from the seventh day or fourteenth day after the transplantation.
On the 22nd day after the transplantation, the lungs were taken out and the number of colonies of metastasizing cells was determined. The inhibition of the metastasis was evaluated by the decrease of the number of colonies and the weight of metastasizing lung tumor.

[4] = Survival of SOD activity in the blood circulation (plasma SOD activity after i.v. infusion); type: in vivo, Wister rats; conditions: for Half life (half survival time of SOD activity in the circulation) / Time to 30% residual activity: 20 mg SOD content/kg, femoral vein, rats
Procedure: For each stabilized SOD obtained in the Examples, the survival time in the blood circulation was measured as follows. Four Wister rats, seven weeks old and weighing 249 to 277 g, were used for each sample. The rats were infused with 20 mg of the sample (20 mg SOD content for the modified SOD; 5 mg per rat) dissolved in a saline solution (0.5 ml per rat) per kg of body weight through the femoral vein, and samples of blood, each 0.2 ml, were withdrawn 5, 15 and 30 minutes and 1, 2, 4, 8, 24 and 48 hours after the injection. Each blood sample was centrifuged, and the SOD activity of the plasma was determined by the method of J. M. McCord et al (J. Biol. Chem.,.244, No. 22, 6049-55, 1969).

[5] = system: superoxide dismutase; conditions: starting material as purchased; cited from earlier work

Row | Substance | Residual enzyme activity (%) ([1]; Table 1, stabilized SOD of Examples) | residual activity ([1]; isolated stabilized SOD, text of Examples) | total activity ([2]; freeze-dried stabilized SOD) | total activity ([2]; reaction mixture after completion of the reaction) | residual activity ([2]; reaction mixture after completion of the reaction, in comparison with the original SOD) | Inhibition ratio (%) (number of tumor colonies) ([3]; 5 injections after 7th day) | Inhibition ratio (%) (weight of lung tumor) ([3]; 5 injections after 7th day) | Mean number of tumor colonies ([3]; 5 injections after 7th day) | Mean weight of lung tumor ([3]; 5 injections after 7th day) | Inhibition ratio (%) (number of tumor colonies) ([3]; 5 injections after 14th day) | Inhibition ratio (%) (weight of lung tumor) ([3]; 5 injections after 14th day) | Mean number of tumor colonies ([3]; 5 injections after 14th day) | Mean weight of lung tumor ([3]; 5 injections after 14th day) | number of colonies as compared to the non-treated mice ([3]; "decreased below 40%") | weight of tumor as compared to the non-treated mice ([3]; "decreased below 40%") | Half life (half survival time of SOD activity in the circulation) [4] | Time to 30% residual activity [4] | activity in the blood circulation with time ([4]; FIG. 5) | specific activity of purchased SOD [5]
1 | Example 1: bovine SOD amide-linked to α-carboxymethyl, ω-carboxymethoxy polyoxyethylene (molecular weight about 4000), 2.4 molecules per enzyme | 95% | 95% | 236000 units | 285000 units | 95±5% | 65% | 66% | 10.5 | 0.15 g | 72% | 77% | 8.4 | 0.10 g | below 40% | below 40% | 240 min | 10 h | rapidly reduces after a few hours from the adminstration, and then it reduces slowly | –
2 | bovine SOD: Superoxide dismutase derived from a bovine blood produced by Toyobo Co., Japan | – | – | – | – | – | – | – | – | – | – | – | – | – | – | – | 6 min | 0.15 h | – | 3000 units/mg
3 | human SOD: SOD derived from human erythrocyte purchased from Sigma Co. | – | – | – | – | – | – | – | – | – | – | – | – | – | – | – | 6 min | 0.15 h | – | 2300 units/mg
